Results: paper PMC9598255

Assays:
Conditions in all cases: glycan lost; control: wild type
[1] = co-immunostaining with Golgi marker GM130, HEK293
[2] = flow cytometry of cell surface TMPRSS2, HEK293
[3] = co-immunostaining with ER marker KDEL, HEK293

Row | Protein | localisation_or_trafficking [1] | localisation_or_trafficking [2] | localisation_or_trafficking [3]
1 | TMPRSS2 (transmembrane protease serine 2): N286Q (protein) parent chain: MPPAPPGGESGCEERGAAGHIEHSRYLSLLDAVDNSKMALNSGSPPAIGPYYENHGYQPENPYPAQPTVVPTVYEVHPAQYYPSPVPQYAPRVLTQASNPVVCTQPKSPSGTVCTSKTKKALCITLTLGTFLVGAALAAGLLWKFMGSKCSNSGIECDSSGTCINPSNWCDGVSHCPGGEDENRCVRLYGPNFILQVYSSQRKSWHPVCQDDWNENYGRAACRDMGYKNNFYSSQGIVDDSGSTSFMKLNTSAGNVDIYKKLYHSDACSSKAVVSLRCIACGVNLNSSRQSRIVGGESALPGAWPWQVSLHVQNVHVCGGSIITPEWIVTAAHCVEKPLNNPWHWTAFAGILRQSFMFYGAGYQVEKVISHPNYDSKTKNNDIALMKLQKPLTFNDLVKPVCLPNPGMMLQPEQLCWISGWGATEEKGKTSEVLNAAKVLLIETQRCNSRYVYDNLITPAMICAGFLQGNVDSCQGDSGGPLVTSKNNIWWLIGDTSWGSGCAKAYRPGVYGNVMVFTDWIYRQMRADG | no change | no change | no change
2 | TMPRSS2 (transmembrane protease serine 2): N250Q (protein) parent chain: MPPAPPGGESGCEERGAAGHIEHSRYLSLLDAVDNSKMALNSGSPPAIGPYYENHGYQPENPYPAQPTVVPTVYEVHPAQYYPSPVPQYAPRVLTQASNPVVCTQPKSPSGTVCTSKTKKALCITLTLGTFLVGAALAAGLLWKFMGSKCSNSGIECDSSGTCINPSNWCDGVSHCPGGEDENRCVRLYGPNFILQVYSSQRKSWHPVCQDDWNENYGRAACRDMGYKNNFYSSQGIVDDSGSTSFMKLNTSAGNVDIYKKLYHSDACSSKAVVSLRCIACGVNLNSSRQSRIVGGESALPGAWPWQVSLHVQNVHVCGGSIITPEWIVTAAHCVEKPLNNPWHWTAFAGILRQSFMFYGAGYQVEKVISHPNYDSKTKNNDIALMKLQKPLTFNDLVKPVCLPNPGMMLQPEQLCWISGWGATEEKGKTSEVLNAAKVLLIETQRCNSRYVYDNLITPAMICAGFLQGNVDSCQGDSGGPLVTSKNNIWWLIGDTSWGSGCAKAYRPGVYGNVMVFTDWIYRQMRADG | no change | – | changes
3 | TMPRSS2 (transmembrane protease serine 2): N250Q/N286Q (protein) parent chain: MPPAPPGGESGCEERGAAGHIEHSRYLSLLDAVDNSKMALNSGSPPAIGPYYENHGYQPENPYPAQPTVVPTVYEVHPAQYYPSPVPQYAPRVLTQASNPVVCTQPKSPSGTVCTSKTKKALCITLTLGTFLVGAALAAGLLWKFMGSKCSNSGIECDSSGTCINPSNWCDGVSHCPGGEDENRCVRLYGPNFILQVYSSQRKSWHPVCQDDWNENYGRAACRDMGYKNNFYSSQGIVDDSGSTSFMKLNTSAGNVDIYKKLYHSDACSSKAVVSLRCIACGVNLNSSRQSRIVGGESALPGAWPWQVSLHVQNVHVCGGSIITPEWIVTAAHCVEKPLNNPWHWTAFAGILRQSFMFYGAGYQVEKVISHPNYDSKTKNNDIALMKLQKPLTFNDLVKPVCLPNPGMMLQPEQLCWISGWGATEEKGKTSEVLNAAKVLLIETQRCNSRYVYDNLITPAMICAGFLQGNVDSCQGDSGGPLVTSKNNIWWLIGDTSWGSGCAKAYRPGVYGNVMVFTDWIYRQMRADG | – | – | changes
